Measurements published in patent US20240324599A1, “PESTICIDAL ENZYMES FOR USE ON NEMATODES, INSECTS, AND MOLLUSKS” (priority 2023, published 2024).

Columns and labels:
[1] = tested on: Diamondback moth (Plutella xylostella); experiment: Diet-surface overlay (DSO) bioassay; format: in vivo; details: Table 44, Lipase 0.14 U/mL diet
Protocol: (§1) Diet-surface overlay bioassays are conducted with artificial diet mixes without antibiotics in 1.5 cm^2 cell bioassay trays(s). Artificial diets are commercially available from Southland Products Inc. Diets were prepared by dispersing 0.5 mL of molten diet to each 1.5 cm^2 cell. After solidification, 0.1 mL enzyme treatments were dispersed on top of diet in each cell and the tray was gently rocked in an orbital shaker to spread the liquid uniformly over the diet surface. Trays were placed under clean airflow until the surface of each cell was uniformly dried. One or two 16-cell sections were used per treatment (the number in larvae treated was 16 or 32).
(§2) One healthy first instar larva was placed into each treatment cell, each 16-cell section was covered with a re-sealable lid and incubated at 27° C. and light-dark period of 16:8 hrs. After 7 days, and according to the species, the number of individuals in the following developmental categories was recorded.
(§3) Diamondback moth (Plutella xylostella): Dead Larva (lack of movement), Larva Stage I (≤50% relative size), Larva Stage II (100% relative size, full size), Early Pupa (light green color), Late Pupa (light-dark brown color), and Adult.
(§4) Negative/untreated controls were treated with filtered water and positive controls were treated with lethal doses of Bacillus thuringiensis subsp. Kurstaki (Btk) spores at 1000 ppm.

[2] = tested on: Btk resistant Diamondback moth; experiment: Diet-surface overlay (DSO) bioassay; format: in vivo; details: Table 45
Protocol: as §1, §2, §3, §4
However, both neutral proteases reduced the number of individuals reaching adult stage.

B1: Bacillus thuringiensis Lipase (Lip1) (protein, listed as Bacillus thuringiensis)
chain: MRLMRRCVALLIVFFIMAPMISTNVRAGVVKELKTGFPDQEVFTPGEWFLGQKPANYDENKPPILFVQGRNGNADSWYGKTVYHDINDMYDYALKAGYQTVFIQLYDAAGKGSASQWDNGKLLAQKLEEIYNHFGKKVNIVAHSKGGIDTQAALVGYGANRFVGNVITLATPHHGSNLADLSYSWWAGWLASILGQKDDGTYSLQMGEMAKFRSTIDNNPAAKLNRYYTVTGTSWGPVFSALSMGGLYLSSYGSNDGLVNECSAKLPYGTHLFTDSRFDHDNIRKGSAVFARIEPYLRTANVPVPALVASSTSSNENIEQLNTTSNQSILGGELPQNQWIEQTVAVDKKAEGIVSILTASSDVEVQMISPKGKVYTNKDSVITTGEGESFFGGATIRTFKFDKMDVGEWKVKMMTKQSKDAYLVVSDYKTGAPFVLQMPTKVKANKSEYKLKKSPVAPEMKGDLSITVRVVNKEGKLVSEFNELQNVNNNTFTGALKNIKQPGVYNVTMDIKGMNKEGKSYSRTIVKSVYVEK
modifications: Lipase (Lip1 H192)
Dead Larva ([1]; individuals of n = 16 after 7 days, water 0): 0 | Larva Stage I ([1]; n = 16, water 0): 0 | Larva Stage II ([1]; n = 16, water 0): 0 | Early Pupa ([1]; n = 16, water 3): 3 | Late Pupa ([1]; n = 16, water 3): 13 | Adult ([1]; n = 16, water 10): 0 | Dead Larva ([2]; Btk resistant strain, individuals of n = 32 after 7 days, U/mL diet: SEQ 76 1.4, Bc 3.8, Pf 5.2, water 3): 1 | Adult ([2]; n = 32, doses as E86, water 0): 0 | Larva Stage I ([2]; n = 32, doses as E86, water 0): 9 | Larva Stage II ([2]; n = 32, doses as E86, water 0): 12 | Early Pupa ([2]; n = 32, doses as E86, water 7): 10 | Late Pupa ([2]; n = 32, doses as E86, water 22): 0
